Consider 4 molecules from patent publication US20200270125A1 (OMEROS, published 2020).

In assay [1] the target is T1, human MASP-3 CCP1-CCP2-SP fragment (human).
T1 construct: limits of the assay construct are not restated; also called rMASP-3 (CCP1-CCP2-SP)
T1 chain: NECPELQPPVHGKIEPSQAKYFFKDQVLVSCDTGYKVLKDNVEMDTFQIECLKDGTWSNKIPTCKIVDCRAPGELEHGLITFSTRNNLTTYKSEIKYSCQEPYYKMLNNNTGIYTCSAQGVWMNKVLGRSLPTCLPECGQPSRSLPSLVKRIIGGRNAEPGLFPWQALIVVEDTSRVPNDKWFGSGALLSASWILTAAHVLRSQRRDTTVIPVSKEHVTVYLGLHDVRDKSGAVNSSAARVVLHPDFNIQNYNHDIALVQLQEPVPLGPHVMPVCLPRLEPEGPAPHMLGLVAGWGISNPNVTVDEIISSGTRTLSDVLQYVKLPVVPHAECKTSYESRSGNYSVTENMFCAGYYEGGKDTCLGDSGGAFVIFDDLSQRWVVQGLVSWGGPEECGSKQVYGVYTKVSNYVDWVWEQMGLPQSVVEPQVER
The assay can be described thus: sandwich ELISA: human MASP-3 CCP1-CCP2-SP captured on aM3-259, mAb detected with anti-human kappa-HRP, A450. On the procedure: The plate was then washed (PBS-T, 0.05%) and the candidate MASP-3 antibodies were added followed by incubation for one hour at room temperature. The plate was washed (PBS-T, 0.05%) and a detection antibody was added (mouse anti-human kappa-HRP, SouthernBiotech #9230-05) for one hour at room temperature. After another wash (PBS-T, 0.05%) the plate was developed (5 minutes) with OPT EIA TMB (BD Biosciences #555214). Absorbance reading at A450 was measured using the Spectramax M5e plate reader.
A general note: In an ELISA, binding on a coated surface is turned into a signal by an enzyme label.

The target of assay [2] is T2, recombinant full-length mouse MASP-3 (mouse).
T2 construct: Entry is with leader; also called mouse full length MASP-3
T2 chain: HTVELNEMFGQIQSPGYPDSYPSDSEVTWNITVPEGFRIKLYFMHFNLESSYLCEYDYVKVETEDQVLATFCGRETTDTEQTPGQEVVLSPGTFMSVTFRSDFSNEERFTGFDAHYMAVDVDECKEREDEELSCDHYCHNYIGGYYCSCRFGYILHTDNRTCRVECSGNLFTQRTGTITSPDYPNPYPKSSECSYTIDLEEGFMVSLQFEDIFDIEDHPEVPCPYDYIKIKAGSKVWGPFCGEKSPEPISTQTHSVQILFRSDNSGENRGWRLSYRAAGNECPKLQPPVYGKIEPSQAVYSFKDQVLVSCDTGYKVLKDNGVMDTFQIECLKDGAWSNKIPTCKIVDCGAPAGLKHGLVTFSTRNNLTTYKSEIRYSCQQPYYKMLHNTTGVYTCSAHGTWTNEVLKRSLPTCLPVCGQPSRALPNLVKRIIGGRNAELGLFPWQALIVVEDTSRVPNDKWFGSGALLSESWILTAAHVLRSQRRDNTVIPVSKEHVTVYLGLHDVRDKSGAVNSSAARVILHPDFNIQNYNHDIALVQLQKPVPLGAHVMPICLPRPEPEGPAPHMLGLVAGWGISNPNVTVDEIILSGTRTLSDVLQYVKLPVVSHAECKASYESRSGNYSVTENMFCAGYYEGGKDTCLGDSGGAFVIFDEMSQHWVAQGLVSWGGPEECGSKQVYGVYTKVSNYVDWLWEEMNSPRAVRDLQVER
The assay can be described thus: sandwich ELISA, full-length mouse MASP-3 captured by αM3-259. The method in brief: (§1)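 Candidate MASP-3 antibodies incubated 1 h at room temperature on the prepared plate, then detected with mouse anti-human kappa-HRP for 1 h. Developed 5 min with TMB; absorbance read at 450 nm.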

Assay [3] deals with T1, human MASP-3 CCP1-CCP2-SP fragment. The assay can be described thus: sandwich ELISA, MASP-3 CCP1-CCP2-SP captured by αM3-259. Summed up:
as §1

Assay [4] concerns the target T3, human MASP-3 (construct not stated) (human).
T3 construct: also called MASP-3 antigen
T3 chain: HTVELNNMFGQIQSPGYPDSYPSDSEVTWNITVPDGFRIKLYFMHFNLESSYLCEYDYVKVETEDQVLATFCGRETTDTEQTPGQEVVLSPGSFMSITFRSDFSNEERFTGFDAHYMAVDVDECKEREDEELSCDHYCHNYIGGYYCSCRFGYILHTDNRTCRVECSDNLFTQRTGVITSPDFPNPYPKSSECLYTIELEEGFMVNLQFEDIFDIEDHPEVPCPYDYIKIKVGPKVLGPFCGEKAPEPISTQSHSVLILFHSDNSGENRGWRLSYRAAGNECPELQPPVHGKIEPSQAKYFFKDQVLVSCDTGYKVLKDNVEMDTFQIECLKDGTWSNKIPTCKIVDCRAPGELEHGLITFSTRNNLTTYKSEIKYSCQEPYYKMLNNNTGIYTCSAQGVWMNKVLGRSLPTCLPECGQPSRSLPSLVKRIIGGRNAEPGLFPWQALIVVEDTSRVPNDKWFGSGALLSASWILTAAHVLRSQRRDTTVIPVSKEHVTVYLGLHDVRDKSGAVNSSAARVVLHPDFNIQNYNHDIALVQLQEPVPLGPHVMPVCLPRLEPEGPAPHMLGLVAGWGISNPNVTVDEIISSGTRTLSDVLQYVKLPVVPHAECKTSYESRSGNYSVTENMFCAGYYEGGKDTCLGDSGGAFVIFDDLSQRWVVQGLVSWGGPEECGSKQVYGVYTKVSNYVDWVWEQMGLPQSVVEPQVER
The assay can be described thus: not described at this place.

Assay [5] concerns the target T4, recombinant human MASP-2 (CCP1-CCP2-SP fragment) (human, UniProt O00187 298-686, limits assumed).
T4 construct: domain: CCP1-CCP2-SP fragment
The assay can be described thus: ELISA: recombinant MASP-2 (CCP1-CCP2-SP) coated directly on the plate, A450. Summed up:
as §1

The target of assay [6] is T1, human MASP-3 CCP1-CCP2-SP fragment. The assay can be described thus: cell-based or functional assay.
For assay [7], the target named is T3, human MASP-3 (construct not stated). The assay is described as follows: cell-based or functional assay.
The target of assay [8] is T5, recombinant human MASP-1A (S646A, CCP1-CCP2-SP fragment) (human, UniProt P48740 298-699, limits assumed).
T5 chain: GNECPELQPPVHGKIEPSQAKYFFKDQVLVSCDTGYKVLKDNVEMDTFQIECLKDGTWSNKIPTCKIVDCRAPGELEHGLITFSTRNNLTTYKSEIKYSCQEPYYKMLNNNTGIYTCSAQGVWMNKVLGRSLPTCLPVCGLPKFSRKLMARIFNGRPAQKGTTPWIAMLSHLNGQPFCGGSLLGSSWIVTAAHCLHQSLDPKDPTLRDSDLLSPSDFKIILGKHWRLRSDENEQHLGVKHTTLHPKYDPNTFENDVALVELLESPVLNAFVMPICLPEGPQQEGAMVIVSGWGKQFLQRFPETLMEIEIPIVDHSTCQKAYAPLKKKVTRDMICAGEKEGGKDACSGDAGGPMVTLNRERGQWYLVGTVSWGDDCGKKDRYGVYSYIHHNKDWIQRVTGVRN
The assay is described as follows: ELISA: recombinant MASP-1A (S646A, CCP1-CCP2-SP) coated directly on the plate, A450. The method in brief: as §1

For assay [9], the target named is T3, human MASP-3 (construct not stated). The assay can be described thus: cell-based or functional assay.
Assay [10] concerns the target T6, recombinant full-length human MASP-3 (human).
T6 construct: Recombinant, full-length; also called full-length human MASP-3 protein; rMASP-3 (full-length)
T6 chain: T3 chain
The assay is described as follows: ELISA, full-length human MASP-3 held by a capture antibody, monovalent Fab, anti-kappa-HRP. An excerpt:
(§2) Binding affinity determinations were made by coating 96-well plates with an anti-MASP-3 capture antibody that binds the protein from multiple species.

The target in assay [11] is T3, human MASP-3 (construct not stated). The assay is described as follows: ELISA, monovalent Fab.
Assay [12] has as its target T2, recombinant full-length mouse MASP-3. The assay is described as follows: ELISA, full-length mouse MASP-3 held by a capture antibody, monovalent Fab, anti-kappa-HRP.
Text: as §2

The target of assay [13] is T3, human MASP-3 (construct not stated). The assay is described as follows: cross-species binding experiments.
Assay [14] deals with T7, human MASP-1 (construct not stated) (human, UniProt P48740 20-699, limits assumed).
T7 sequence: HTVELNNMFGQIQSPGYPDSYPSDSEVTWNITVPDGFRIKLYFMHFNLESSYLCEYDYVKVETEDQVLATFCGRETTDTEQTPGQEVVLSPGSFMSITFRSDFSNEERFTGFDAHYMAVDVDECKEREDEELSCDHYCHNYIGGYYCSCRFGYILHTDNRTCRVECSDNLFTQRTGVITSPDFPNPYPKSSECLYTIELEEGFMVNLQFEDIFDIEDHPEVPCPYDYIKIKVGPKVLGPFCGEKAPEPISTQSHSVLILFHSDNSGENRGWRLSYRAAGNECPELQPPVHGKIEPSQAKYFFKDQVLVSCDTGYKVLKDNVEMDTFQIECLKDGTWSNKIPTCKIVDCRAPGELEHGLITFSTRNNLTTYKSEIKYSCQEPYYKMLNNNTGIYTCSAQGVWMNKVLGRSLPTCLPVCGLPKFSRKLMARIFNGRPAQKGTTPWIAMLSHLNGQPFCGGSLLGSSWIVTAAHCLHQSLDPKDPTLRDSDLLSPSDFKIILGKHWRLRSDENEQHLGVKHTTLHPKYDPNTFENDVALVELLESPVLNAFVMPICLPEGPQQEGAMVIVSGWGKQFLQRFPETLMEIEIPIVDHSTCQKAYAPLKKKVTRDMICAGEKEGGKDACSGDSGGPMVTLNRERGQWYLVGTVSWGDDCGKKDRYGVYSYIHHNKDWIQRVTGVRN
The assay is described as follows: DTLacO screen.

T4 sequence (O00187 298-686 limits assumed): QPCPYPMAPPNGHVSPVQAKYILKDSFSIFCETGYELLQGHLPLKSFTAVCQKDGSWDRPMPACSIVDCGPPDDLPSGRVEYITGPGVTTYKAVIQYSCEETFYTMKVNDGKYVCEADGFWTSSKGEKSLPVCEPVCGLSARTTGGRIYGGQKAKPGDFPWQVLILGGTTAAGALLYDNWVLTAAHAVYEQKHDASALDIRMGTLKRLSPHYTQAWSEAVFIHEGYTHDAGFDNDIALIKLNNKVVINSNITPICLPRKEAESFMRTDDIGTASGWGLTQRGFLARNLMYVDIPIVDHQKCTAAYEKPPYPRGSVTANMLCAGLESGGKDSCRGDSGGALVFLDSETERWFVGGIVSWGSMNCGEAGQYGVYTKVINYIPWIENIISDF

B1: MASP-3 mAb 13B1 (mouse-human chimeric IgG4) (antibody, V domains shown)
VH: QVQLKQSGAELMKPGASVKLSCKATGYTFTGKWIEWVKQRPGHGLEWIGEILPGTGSTNYNEKFKGKATFTADSSSNTAYMQLSSLTTEDSAMYYCLRSEDVWGTGTTVTVSS
VL: DIVMTQSPSSLAVSAGEKVTMSCKSSQSLLNSRTRKNYLAWYQQKPGQSPKLLIYWASTRESGVPDRFTGSGSGTDFTLTISSVQAEDLAVYYCKQSYNIPTFGGGTKLEIKR
notes: also called mAb M3-1; M3-1
Usually EC50 stands for the concentration giving half of the maximal effect. As for B1, the 50% effective concentration (EC50) in assay [1] worked out at 89 pM; in assay [2], 35 pM; in assay [3] it was 59 pM. The binding affinity in assay [4] was ≤ 500 pM. The binding result in assay [5] and in assay [8] was “no binding (tested: about 20 nM (log10 about 1.3))” in each case. Further, in [6], the “inhibition of MASP-3-dependent fluorogenic tripeptide (BOC-V-P-R-AMC) cleavage” value stood at 30.1 nM. For the same molecule, the “IC50, factor Bb deposition on zymosan in 10% CFD-depleted human serum with pro-CFD (flow cytometry)” value in assay [7] turned out to be 311 pM. Further, the “Inhibition of Factor Bb Deposition on Zymosan (IC50 nM), 10% factor D-depleted human serum with pro-factor D” value in assay [9] came out at 0.3 nM.

B2: 13B1 Parental Fab (Fab, V domains shown)
VH: B1 VH
VL: B1 VL
notes: Monovalent Fab; also called M3-1 Fab; 13B1 Fab
On to B2, for which the figures for the EC50 in assay [10], in [11] and in assay [12] were ~117 pM, 123 pM and ~214 pM, respectively. Further, the avidity in assay [13] is < 500 pM.

B3: MASP-3 clone D14 (antibody, human IgG1, V domains shown)
VH: AVTLDESGGGLQTPGGALSLVCKASGFTFSSYAMHWVRQAPGKGLEWVAGIYKSGAGTNYAPAVKGRATISRDNGQSTVRLQLNNLRAEDTGTYYCAKTTGSGCSSGYRAEYIDAWGHGTEVIVSS
VL: ALTQPASVSANPGETVKITCSGGGSYAGSYYYGWYQQKAPGSAPVTLIYYNNKRPSDIPSRFSGSLSGSTNTLTITGVRADDEAVYFCGSADNSGAAFGAGTTLTVL
notes: Chicken V regions from the DTLacO platform; also called mAbD14; mAb D14
In the case of B3, in assay [14], the binding result is on record as “binds”.

B4: MASP-1 clone 1E10 (antibody, human IgG1, V domains shown)
VH: AVTLDESGGGLQTPGGALSLVCKASGFTFSSYDMVWVRQAPGKGLEFVAGISRNDGRYTEYGSAVKGRATISRDNGQSTVRLQLNNLRAEDTATYYCARDAGGSAYWFDAGQIDAWGHGTEVIVSS
VL: B3 VL
notes: Chicken V regions from the DTLacO platform; also called mAb 1E10; mAb1E10
Take B4: the binding result in [14] is “binds”.
